Results as given in US20200262916A1, “Mammalian Atg8 Proteins Control Autolysosomal Biogenesis Through SNARES” (STC. UNM, priority 2019, published 2020).

Experiments:
[1] = system: HeLa cells stably expressing YFP-Parkin; assay: Parkin-dependent mitophagy, HCM quantification of mitochondrial DNA (mtDNA); format: cell-based; conditions: wild type HeLa-YFP-Parkin cells; CCCP 10 μM or oligomycin A 5 μM and antimycin A 10 μM; 16 hours
Huh7 cells = assay: Pexophagy, Western blot of peroxisomal proteins PEX14 and PMP70; format: cell-based; conditions: H2O2 0.4 mM, over a period of 6 hours
[2] = molecular target: T1, VPS33A (endogenous, a component of the HOPS complex) (UniProt Q96AX1 1-596); assay: endogenous Co-IP with mouse anti-Stx6 antibody, HeLa cells
T1 sequence (looked up): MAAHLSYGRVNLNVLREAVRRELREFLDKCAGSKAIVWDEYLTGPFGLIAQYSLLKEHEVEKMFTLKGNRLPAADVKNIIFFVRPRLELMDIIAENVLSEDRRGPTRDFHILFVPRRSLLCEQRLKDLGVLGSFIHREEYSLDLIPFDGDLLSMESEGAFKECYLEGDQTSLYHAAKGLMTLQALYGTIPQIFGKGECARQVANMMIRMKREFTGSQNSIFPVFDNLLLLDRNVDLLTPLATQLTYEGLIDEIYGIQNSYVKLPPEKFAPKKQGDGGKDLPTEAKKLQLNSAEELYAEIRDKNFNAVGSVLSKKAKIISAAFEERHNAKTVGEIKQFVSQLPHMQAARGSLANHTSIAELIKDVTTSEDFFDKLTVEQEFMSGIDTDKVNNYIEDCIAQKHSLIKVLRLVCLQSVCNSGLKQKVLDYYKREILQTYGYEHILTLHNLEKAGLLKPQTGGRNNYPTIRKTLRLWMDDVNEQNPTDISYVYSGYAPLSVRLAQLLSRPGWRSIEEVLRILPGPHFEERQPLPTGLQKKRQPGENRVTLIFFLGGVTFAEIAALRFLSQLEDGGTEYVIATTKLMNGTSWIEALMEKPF

VPS41 (endogenous) = molecular target: T2, VPS41 (endogenous) (UniProt P49754 1-854, limits assumed); assay: as above
T2 construct: also called HOPS component VPS41
T2 sequence (looked up): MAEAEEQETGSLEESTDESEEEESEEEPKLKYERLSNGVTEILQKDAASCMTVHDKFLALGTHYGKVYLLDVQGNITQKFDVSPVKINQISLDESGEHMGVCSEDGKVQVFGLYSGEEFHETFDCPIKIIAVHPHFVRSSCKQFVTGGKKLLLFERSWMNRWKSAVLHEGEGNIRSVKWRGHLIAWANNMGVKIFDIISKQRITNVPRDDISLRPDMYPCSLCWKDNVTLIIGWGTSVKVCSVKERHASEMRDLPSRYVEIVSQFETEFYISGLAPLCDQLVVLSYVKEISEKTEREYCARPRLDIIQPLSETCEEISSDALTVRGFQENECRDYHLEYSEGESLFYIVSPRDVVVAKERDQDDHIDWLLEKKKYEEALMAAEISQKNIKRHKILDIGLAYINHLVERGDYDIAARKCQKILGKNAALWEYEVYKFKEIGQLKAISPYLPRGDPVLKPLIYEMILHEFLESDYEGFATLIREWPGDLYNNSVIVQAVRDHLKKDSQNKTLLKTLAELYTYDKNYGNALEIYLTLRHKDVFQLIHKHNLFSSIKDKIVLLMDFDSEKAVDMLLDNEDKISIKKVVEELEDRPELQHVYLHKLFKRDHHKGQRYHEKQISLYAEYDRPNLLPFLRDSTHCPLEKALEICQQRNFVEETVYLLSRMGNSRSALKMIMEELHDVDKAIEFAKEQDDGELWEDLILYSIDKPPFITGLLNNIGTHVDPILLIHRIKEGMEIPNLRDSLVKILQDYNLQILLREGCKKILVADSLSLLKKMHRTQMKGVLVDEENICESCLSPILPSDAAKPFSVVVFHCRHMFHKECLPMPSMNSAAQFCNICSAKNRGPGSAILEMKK

## N#CC(C#N)=NNc1cccc(Cl)c1 [CCCP]
[1]
  mtDNA as a measure of cellular mitochondrial content: major reduction

## OO [H2O2]
Huh7 cells
  levels of peroxisomal constituents PEX14 and PMP70: decrease

B1: Stx6 (endogenous, precipitated with mouse anti-Stx6 antibody from HeLa cells) (other, UniProt O43752 2-255, looked up)
chain: SMEDPFFVVKGEVQKAVNTAQGLFQRWTELLQDPSTATREEIDWTTNELRNNLRSIEWDLEDLDETISIVEANPRKFNLDATELSIRKAFITSTRQVVRDMKDQMSTSSVQALAERKNRQALLGDSGSQNWSTGTTDKYGRLDRELQRANSHFIEEQQAQQQLIVEQQDEQLELVSGSIGVLKNMSQRIGGELEEQAVMLEDFSHELESTQSRLDNVMKKLAKVSHMTSDRRQWCAIAILFAVLLVVLILFLVL
notes: also called syntaxin 6
[2]
  binding result: no binding
VPS41 (endogenous)
  binding result: binds

B2: Vti1a (endogenous, in HeLa and U2OS cells) (other, UniProt Q96AJ9 1-217, looked up)
chain: MSSDFEGYEQDFAVLTAEITSKIARVPRLPPDEKKQMVANVEKQLEEAKELLEQMDLEVREIPPQSRGMYSNRMRSYKQEMGKLETDFKRSRIAYSDEVRNELLGDDGNSSENQRAHLLDNTERLERSSRRLEAGYQIAVETEQIGQEMLENLSHDREKIQRARERLRETDANLGKSSRILTGMLRRIIQNRILLVILGIIVVITILMAITFSVRRH
[2]
  binding result: no binding
